Source: patent US20260315572 (published 2026)
Starred links: 1 amine or outer side, 2 acyl side, 3 side chain; linkers in the order of their positions; H or OH if unused. Non-standard residues stand in square brackets, D forms with d. Groups on a side chain read outwards from the residue. No end group written: not given here. *: point of attachment. C20 diacid = O=C(O)CCCCCCCCCCCCCCCCCCC(=O)*; γGlu = O=C(O)[C@H](CCC(=O)[*:2])N[*:1]; AEEA = NCCOCCOCC(=O)O; Aib = CC(C)(N)C(=O)O

Experiments:
[1] = target: T1, hGLP-1R (human, UniProt P43220); assay: competition, [125I]-GLP-1 radioligand
T1 chain: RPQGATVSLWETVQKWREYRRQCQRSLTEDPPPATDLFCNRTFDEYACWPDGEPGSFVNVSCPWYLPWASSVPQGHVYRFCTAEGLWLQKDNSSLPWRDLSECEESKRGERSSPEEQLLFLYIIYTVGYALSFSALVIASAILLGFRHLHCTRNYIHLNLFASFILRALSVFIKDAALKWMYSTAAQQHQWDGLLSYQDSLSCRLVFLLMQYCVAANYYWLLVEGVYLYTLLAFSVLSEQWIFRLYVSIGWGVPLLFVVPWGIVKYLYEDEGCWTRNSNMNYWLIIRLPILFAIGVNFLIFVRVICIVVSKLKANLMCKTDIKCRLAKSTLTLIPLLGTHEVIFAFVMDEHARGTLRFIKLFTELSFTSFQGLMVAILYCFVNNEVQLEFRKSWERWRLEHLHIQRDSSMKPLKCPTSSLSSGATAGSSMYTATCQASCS

[2] = target: T2, hGIPR (human, UniProt P48546); assay: competition, [125I]-GIP radioligand
T2 chain: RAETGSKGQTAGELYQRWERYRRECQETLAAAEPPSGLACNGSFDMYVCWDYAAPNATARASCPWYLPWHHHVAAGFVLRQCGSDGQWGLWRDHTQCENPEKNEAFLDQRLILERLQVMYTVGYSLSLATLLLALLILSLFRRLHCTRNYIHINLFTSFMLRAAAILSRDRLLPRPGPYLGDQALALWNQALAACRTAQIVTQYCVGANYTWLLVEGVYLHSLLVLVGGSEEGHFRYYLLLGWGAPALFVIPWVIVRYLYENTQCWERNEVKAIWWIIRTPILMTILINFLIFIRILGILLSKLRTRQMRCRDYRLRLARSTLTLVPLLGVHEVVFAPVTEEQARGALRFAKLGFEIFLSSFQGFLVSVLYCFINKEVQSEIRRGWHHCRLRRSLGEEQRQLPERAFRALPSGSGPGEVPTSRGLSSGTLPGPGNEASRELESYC

[3] = target: hGCGR (human, UniProt P47871); assay: competition, [125I]-glucagon radioligand
Sequence of hGCGR (P47871 26-477): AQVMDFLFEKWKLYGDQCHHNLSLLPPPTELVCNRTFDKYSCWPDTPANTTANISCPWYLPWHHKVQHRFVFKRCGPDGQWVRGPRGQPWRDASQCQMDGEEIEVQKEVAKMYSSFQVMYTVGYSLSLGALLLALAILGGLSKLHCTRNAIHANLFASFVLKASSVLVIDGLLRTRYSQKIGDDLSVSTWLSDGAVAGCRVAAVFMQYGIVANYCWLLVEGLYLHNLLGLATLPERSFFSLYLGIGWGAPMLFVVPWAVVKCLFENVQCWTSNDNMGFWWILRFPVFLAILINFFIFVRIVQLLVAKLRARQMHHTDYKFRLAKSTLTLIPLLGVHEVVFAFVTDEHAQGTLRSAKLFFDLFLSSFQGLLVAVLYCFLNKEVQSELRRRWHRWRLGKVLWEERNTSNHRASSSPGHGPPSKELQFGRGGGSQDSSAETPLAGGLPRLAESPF

B1: Example 1 (peptide)
chain: Y[Aib]EGTFTSDYSI[Aib]LDKIAQK([AEEA-AEEA-γGlu-C20 diacid])AFVQWLIAGGP-OH
modifications: N-terminus assumed
SMILES: CC[C@H](C)[C@H](NC(=O)[C@H](CC(C)C)NC(=O)[C@H](Cc1c[nH]c2ccccc12)NC(=O)[C@H](CCC(N)=O)NC(=O)[C@@H](NC(=O)[C@H](Cc1ccccc1)NC(=O)[C@H](C)NC(=O)[C@H](CCCCNC(=O)COCCOCCNC(=O)COCCOCCNC(=O)CC[C@H](NC(=O)CCCCCCCCCCCCCCCCCCC(=O)O)C(=O)O)NC(=O)[C@H](CCC(N)=O)NC(=O)[C@H](C)NC(=O)[C@@H](NC(=O)[C@H](CCCCN)NC(=O)[C@H](CC(=O)O)NC(=O)[C@H](CC(C)C)NC(=O)C(C)(C)NC(=O)[C@@H](NC(=O)[C@H](CO)NC(=O)[C@H](Cc1ccc(O)cc1)NC(=O)[C@H](CC(=O)O)NC(=O)[C@H](CO)NC(=O)[C@@H](NC(=O)[C@H](Cc1ccccc1)NC(=O)[C@@H](NC(=O)CNC(=O)[C@H](CCC(=O)O)NC(=O)C(C)(C)NC(=O)[C@@H](N)Cc1ccc(O)cc1)[C@@H](C)O)[C@@H](C)O)[C@@H](C)CC)[C@@H](C)CC)C(C)C)C(=O)N[C@@H](C)C(=O)NCC(=O)NCC(=O)N1CCC[C@H]1C(=O)O
B1 was tested, and the Ki [1] was 0.0109 µM, the Ki [2] was 0.00032 µM and the Ki [3] was over 0.24 µM.
